Test results published in patent US7968093B2, “Fully human antibodies directed against the human insulin-like growth factor-1 receptor” (ImClone LLC, priority 2003, dated 2011).

Legend:
[1] = tested on: human colorectal cancer line HT-29; test: HT-29 xenograft, A12 monotherapy; type: in vivo, mouse
Method: We were interested to determine if the anti-IGF-IR antibodies were capable of inhibiting human tumor growth in vivo in a nude mouse xenograft model. Tumors were induced in 3-4 week old athymic nude (nu/nu) mice by subcutaneous injection of 2-3 million viable HT-29 human colorectal cancer cells in cell culture medium. The tumors were allowed to establish and antibody treatment started when the tumor volume reached 200 mm^3. Ten animals were injected with tumor cells per treatment group. Antibody was injected intraperitoneally (IP) every three days at 1 mg or 0.5 mg in 0.5 ml TBS. The drug irenotecan (CPT-11) (LKT Laboratories) was injected IP (100 mg/kg) once a week for four weeks from the initiation of antibody treatment. Control animals received a class matched irrelevant human IgG antibody. Tumor measurements were performed at regular intervals using Vernier calipers, measuring height, width, and length and calculated to determine the total tumor volume. The study was terminated when control tumors reached 3000 mm^3.
Tumors were induced as previously described, and antibody treatment initiated once tumors were established (200 mm^3 size). Antibody treatment was then given at a concentration of 1 mg, 100 μg, or 10 μg every three days throughout the duration of the experiment. Ten animals were used per treatment group and control animals received a class match IgG control antibody.

IGF-IR [2] = molecular target: T1, IGF-IR (Homo sapiens, UniProt P08069); test: FACs binding analysis to human cell lines; type: cell-based; design: endogenous in cells; HT-29; BxPC-3; HEL; settings: 0.5 μg A12
Method: Since A12 was capable of immunoprecipitating endogenous IGF-IR, we were therefore interested in determining if A12 could also be used as detection antibody for fluorescence activated cell sorting (FACs). Human tumor cell lines were grown in culture, scraped into ice-cold PBS, and counted. Primary antibody, A12 (0.5 μg), was added to approximately 5 million cells in 250 μl PBS/5% FBS and incubated on ice for 1 hour. The cells were then diluted to 3 mls in PBS/5% FBS, pelleted, and the supernatant aspirated. Secondary phycoerythin (PE)-labeled goat anti-human IgG F(ab)2 fragment was then added in 250 μl PBS/5% FBS at 1:200 and incubated on ice for 60 minutes. Afterwards, the cells were again diluted and pelleted, as before, then resuspended in 500 μl PBS/5% FBS. FACs analysis was then performed on a Epics XL unit (Coulter). […] IGF-IR negative mouse embryo fibroblasts (R-cells) (obtained from R. Baserga, Thomas Jefferson University, Philadelphia, Pa.) served as the negative control.

IGF-IR on MCF7 cells = molecular target: T2, IGF-IR on MCF7 cells (Homo sapiens, UniProt P08069); test: Internalization of 125I-A12 after binding to IGF-IR; type: cell-based; settings: 37° C., 30-180 minutes
T2 construct: endogenous in cells
Method: Antibody A12 was radio-iodinated with ^125iodine using IODO-beads (Pierce) according to manufacturer's instructions. MCF7 human breast cancer cells were plated into 6-well plates and cultured overnight to 50% confluence. One microgram of ^125I-A12 was added to each well and incubated at 37° C. or kept on ice at 4° C. Plates were incubated for 30 minutes, 90 minutes, or 180 minutes and each time point performed in triplicate. The culture at 4° C. was held for 180 minutes. At each time point, wells were washed 1× w/PBS, then stripped for 5 minutes with 100 mM glycine-HCl, 2M urea, pH 2.5. The stripped material, representing membrane bound antibody was kept on ice for counting. Wells were then washed 3 times with PBS and cells solubilized with 1N NaOH/1% TritonX100. The solubilized fraction represented the internalized antibody. Stripped and solubilized fractions were then read on a gamma counter and plotted with standard deviation.

mouse IGF-IR [3] = test: FACs binding analysis to mouse cell lines; type: cell-based; settings: IGF-IR negative mouse embryo fibroblasts (R- cells)
mouse IGF-IR [4] = molecular target: T3, mouse IGF-IR (Mus musculus, UniProt Q60751); test: FACs binding analysis to mouse cell lines; type: cell-based; settings: mouse tumor cell line Lewis Lung carcinoma
T3 construct: endogenous in cells; host or cells: Lewis Lung carcinoma (mouse); R- mouse embryo fibroblasts (IGF-IR negative control)
T3 sequence (Q60751 31-737 limits assumed): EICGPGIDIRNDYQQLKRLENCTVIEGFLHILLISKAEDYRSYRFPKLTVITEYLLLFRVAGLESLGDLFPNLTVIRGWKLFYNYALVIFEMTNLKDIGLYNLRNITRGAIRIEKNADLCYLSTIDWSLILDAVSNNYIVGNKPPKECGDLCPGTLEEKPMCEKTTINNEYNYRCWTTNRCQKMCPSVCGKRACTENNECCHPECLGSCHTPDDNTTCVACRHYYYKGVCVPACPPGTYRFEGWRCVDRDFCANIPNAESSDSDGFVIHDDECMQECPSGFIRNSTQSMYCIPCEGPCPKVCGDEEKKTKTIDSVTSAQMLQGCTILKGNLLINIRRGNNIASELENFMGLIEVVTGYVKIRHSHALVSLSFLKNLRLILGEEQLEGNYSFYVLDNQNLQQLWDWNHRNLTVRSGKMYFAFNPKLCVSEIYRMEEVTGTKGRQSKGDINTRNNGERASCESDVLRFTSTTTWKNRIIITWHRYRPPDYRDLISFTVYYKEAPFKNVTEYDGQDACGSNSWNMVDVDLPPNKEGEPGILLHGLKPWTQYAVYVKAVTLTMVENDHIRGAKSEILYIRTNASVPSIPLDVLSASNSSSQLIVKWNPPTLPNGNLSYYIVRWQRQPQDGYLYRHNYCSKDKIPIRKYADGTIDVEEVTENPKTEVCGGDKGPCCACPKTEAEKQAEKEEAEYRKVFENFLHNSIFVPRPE
T3 sequence (Q60751 742-1373 limits assumed): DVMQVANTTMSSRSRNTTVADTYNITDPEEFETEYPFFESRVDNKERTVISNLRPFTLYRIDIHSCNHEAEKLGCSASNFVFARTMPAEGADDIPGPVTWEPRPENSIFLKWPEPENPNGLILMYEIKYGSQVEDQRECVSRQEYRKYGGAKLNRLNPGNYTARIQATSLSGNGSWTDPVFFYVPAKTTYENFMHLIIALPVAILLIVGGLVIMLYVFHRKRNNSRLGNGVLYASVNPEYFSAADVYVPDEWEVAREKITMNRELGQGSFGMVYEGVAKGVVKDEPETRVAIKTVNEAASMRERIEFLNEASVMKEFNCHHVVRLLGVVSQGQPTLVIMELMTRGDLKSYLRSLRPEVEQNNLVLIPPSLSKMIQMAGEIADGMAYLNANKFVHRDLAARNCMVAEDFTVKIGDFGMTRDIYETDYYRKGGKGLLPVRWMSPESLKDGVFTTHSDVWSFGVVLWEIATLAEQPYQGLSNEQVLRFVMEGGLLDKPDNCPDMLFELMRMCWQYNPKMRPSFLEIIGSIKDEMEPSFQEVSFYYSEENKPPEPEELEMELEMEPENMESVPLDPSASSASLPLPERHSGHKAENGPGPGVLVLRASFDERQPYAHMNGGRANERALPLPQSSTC

[5] = molecular target: T4, IGF-IR in HT-29 cells and BxPC-3 cells (Homo sapiens, UniProt P08069); test: Total cellular IGF-IR after treatment; type: cell-based; settings: HT-29 and BxPC-3 cells; A12 after 3-6 hours
T4 construct: endogenous in cells; HT-29; BxPC-3; HEL

IGF-IR [6] = molecular target: T1, IGF-IR; test: IGF-I mediated IGF-IR auto-phosphorylation, western blot; type: cell-based; design: endogenous in cells; HT-29; BxPC-3; HEL

“A12: fully human IgG1 anti-IGF-IR antibody, lambda light chain; VH SEQ ID NO:2, VL SEQ ID NO:10; affinity matured from 2F8” was tested, and the anti-tumor activity ([1]; 100 μg every three days) was “Anti-tumor activity was also observed”, the “reduction in tumor growth compared to control” value ([1]; every three days, P<0.05, dose of this value not stated (1 mg, 100 μg, 10 μg tested)) was 74% and the FACs shift (IGF-IR [2]; HEL human leukemia cell line) was “fully shifted”. The FACs shift (IGF-IR [2]; MCF7 human breast cancer cell line) was “fully shifted”, the “internalization of labeled antibody” value (IGF-IR on MCF7 cells) was “rapidly internalized” and the FACs binding (mouse IGF-IR [3]) was “failed to bind”. For the same substance, the FACs shift (mouse IGF-IR [4]) was “partially shift”, the “effect on total cellular IGF-IR” value [5] was “severe depletion of IGF-IR levels” and the “inhibition of IGF-IR auto-phosphorylation” value (IGF-IR [6]; BxPC-3 pancreatic cancer cells) was “inhibited auto-phosphorylation of IGF-IR”. For the same substance, the “inhibition of IGF-IR auto-phosphorylation” value (IGF-IR [6]; HT-29 colorectal cancer cells) was “inhibited auto-phosphorylation of IGF-IR”, the “agonist activity: receptor phosphorylation by antibody alone” value (IGF-IR [6]; MCF7 cells, serum deprived, no ligand) was “did not induce receptor phosphorylation” and the “block of IGF-IR phosphorylation” value (IGF-IR [6]; MCF7 cells, 10 nM IGF-I) was “nearly completely blocked phosphorylation”.
